Changes are numbered by the printed parent chain. Numbers in names are those of the source.
T1: TNFR1 (Homo sapiens, UniProt P19438)
T1 chain: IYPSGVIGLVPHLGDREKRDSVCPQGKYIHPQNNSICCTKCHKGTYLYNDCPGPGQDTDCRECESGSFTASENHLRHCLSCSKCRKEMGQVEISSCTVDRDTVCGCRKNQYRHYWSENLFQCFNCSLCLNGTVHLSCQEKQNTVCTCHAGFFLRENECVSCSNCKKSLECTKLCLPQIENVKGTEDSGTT

B1: K18F (designed binder)
chain: SMEEEVEKAAKEYEKKKFEAIEKHLEKLKAKDKEAAERFLKELEEAAKEYAKDEAKTMSEEEAKRRAKKYKEKVLLSELSEEEQKEIKEAEEKLVRTILKYVEEAAK
B2: V95Y (designed binder)
chain: B1 chain with F18K, V95Y
B3: K100F (designed binder)
chain: B1 chain with F18K, K100F
B4: A106E (designed binder)
chain: B1 chain with F18K, A106E
B5: S1P (designed binder)
chain: B1 chain with S1P, F18K
B6: Y13E (designed binder)
chain: B1 chain with Y13E, F18K
B7: K56P (designed binder)
chain: B1 chain with F18K, K56P
B8: E62A (designed binder)
chain: B1 chain with F18K, E62A
B9: S80Y (designed binder)
chain: B1 chain with F18K, S80Y
B10: A35F (designed binder)
chain: B1 chain with F18K, A35F
B11: M58C (designed binder)
chain: B1 chain with F18K, M58C
B12: K56C (designed binder)
chain: B1 chain with F18K, K56C
B13: E45P (designed binder)
chain: B1 chain with F18K, E45P
B14: I21S (designed binder)
chain: B1 chain with F18K, I21S
B15: E44T (designed binder)
chain: B1 chain with F18K, E44T
B16: R96H (designed binder)
chain: B1 chain with F18K, R96H
B17: E82C (designed binder)
chain: B1 chain with F18K, E82C
B18: E82Q (designed binder)
chain: B1 chain with F18K, E82Q
B19: E103R (designed binder)
chain: B1 chain with F18K, E103R
B20: K88S (designed binder)
chain: B1 chain with F18K, K88S
B21: E42D (designed binder)
chain: B1 chain with F18K, E42D
B22: K71P (designed binder)
chain: B1 chain with F18K, K71P
B23: M2C (designed binder)
chain: B1 chain with M2C, F18K
B24: E89P (designed binder)
chain: B1 chain with F18K, E89P
B25: E72T (designed binder)
chain: B1 chain with F18K, E72T
B26: K11D (designed binder)
chain: B1 chain with K11D, F18K
B27: E5K (designed binder)
chain: B1 chain with E5K, F18K
B28: E45F (designed binder)
chain: B1 chain with F18K, E45F
B29: K18E (designed binder)
chain: B1 chain with F18E
B30: K73F (designed binder)
chain: B1 chain with F18K, K73F
B31: D53T (designed binder)
chain: B1 chain with F18K, D53T
B32: Y13W (designed binder)
chain: B1 chain with Y13W, F18K
B33: E86S (designed binder)
chain: B1 chain with F18K, E86S
B34: A67N (designed binder)
chain: B1 chain with F18K, A67N
B35: R38V (designed binder)
chain: B1 chain with F18K, R38V
B36: E86R (designed binder)
chain: B1 chain with F18K, E86R
B37: Y50R (designed binder)
chain: B1 chain with F18K, Y50R
B38: T57L (designed binder)
chain: B1 chain with F18K, T57L
B39: L94T (designed binder)
chain: B1 chain with F18K, L94T
B40: V6T (designed binder)
chain: B1 chain with V6T, F18K
B41: I21T (designed binder)
chain: B1 chain with F18K, I21T
B42: K15W (designed binder)
chain: B1 chain with K15W, F18K
B43: A9W (designed binder)
chain: B1 chain with A9W, F18K
B44: Y70C (designed binder)
chain: B1 chain with F18K, Y70C
B45: R65S (designed binder)
chain: B1 chain with F18K, R65S
B46: K64W (designed binder)
chain: B1 chain with F18K, K64W
B47: K31H (designed binder)
chain: B1 chain with F18K, K31H
B48: A10C (designed binder)
chain: B1 chain with A10C, F18K
B49: E103F (designed binder)
chain: B1 chain with F18K, E103F
B50: E103C (designed binder)
chain: B1 chain with F18K, E103C
B51: K11P (designed binder)
chain: B1 chain with K11P, F18K
B52: V6H (designed binder)
chain: B1 chain with V6H, F18K
B53: K33P (designed binder)
chain: B1 chain with F18K, K33P
B54: R66G (designed binder)
chain: B1 chain with F18K, R66G
B55: A46M (designed binder)
chain: B1 chain with F18K, A46M
B56: E49W (designed binder)
chain: B1 chain with F18K, E49W
B57: E104Q (designed binder)
chain: B1 chain with F18K, E104Q
B58: M58R (designed binder)
chain: B1 chain with F18K, M58R
B59: E49C (designed binder)
chain: B1 chain with F18K, E49C

Biological target: T1, TNFR1
Test: yeast display SC50

| apparent Kd (screen) [nM] | Binder |
| --- | --- |
| 0.869 | B1 |
| 3 | B2 |
| 1.27 | B3 |
| 1.27 | B4 |
| 0.539 | B5 |
| 1.54 | B6 |
| 24.4 | B7 |
| 0.446 | B8 |
| 2.05 | B9 |
| 0.956 | B10 |
| 2.73 | B11 |
| 10.4 | B12 |
| 7.78 | B13 |
| 0.446 | B14 |
| 0.956 | B15 |
| 2.48 | B16 |
| 1.86 | B17 |
| 0.49 | B18 |
| 0.539 | B19 |
| 0.49 | B20 |

| apparent Kd (screen) [nM] | Binder |
| --- | --- |
| 2.73 | B21 |
| 11.4 | B22 |
| 2.73 | B23 |
| 10.4 | B24 |
| 1.27 | B25 |
| 0.446 | B26 |
| 0.446 | B27 |
| 4.39 | B28 |
| 1.86 | B29 |
| 15.2 | B30 |
| 2.73 | B31 |
| 2.73 | B32 |
| 0.718 | B33 |
| 7.07 | B34 |
| 2.48 | B35 |
| 0.593 | B36 |
| 2.25 | B37 |
| 0.107 | B38 |
| 0.446 | B39 |
| 0.49 | B40 |

| apparent Kd (screen) [nM] | Binder |
| --- | --- |
| 0.49 | B41 |
| 1.16 | B42 |
| 3 | B43 |
| 7.78 | B44 |
| 1.69 | B45 |
| 0.446 | B46 |
| 0.446 | B47 |
| 1.05 | B48 |
| 1.05 | B49 |
| 7.78 | B50 |
| 18.3 | B51 |
| 0.446 | B52 |
| 0.593 | B53 |
| 7.07 | B54 |
| 0.117 | B55 |
| 16.7 | B56 |
| 1.05 | B57 |
| 12.5 | B58 |
| 13.8 | B59 |
